# Data taken from article PMC5877952 (Proceedings of the National Academy of Sciences of the …, 2018).
# T1: SAX-3–Flag (C. elegans, UniProt G5EBF1 24-1273)
# T1 sequence (looked up): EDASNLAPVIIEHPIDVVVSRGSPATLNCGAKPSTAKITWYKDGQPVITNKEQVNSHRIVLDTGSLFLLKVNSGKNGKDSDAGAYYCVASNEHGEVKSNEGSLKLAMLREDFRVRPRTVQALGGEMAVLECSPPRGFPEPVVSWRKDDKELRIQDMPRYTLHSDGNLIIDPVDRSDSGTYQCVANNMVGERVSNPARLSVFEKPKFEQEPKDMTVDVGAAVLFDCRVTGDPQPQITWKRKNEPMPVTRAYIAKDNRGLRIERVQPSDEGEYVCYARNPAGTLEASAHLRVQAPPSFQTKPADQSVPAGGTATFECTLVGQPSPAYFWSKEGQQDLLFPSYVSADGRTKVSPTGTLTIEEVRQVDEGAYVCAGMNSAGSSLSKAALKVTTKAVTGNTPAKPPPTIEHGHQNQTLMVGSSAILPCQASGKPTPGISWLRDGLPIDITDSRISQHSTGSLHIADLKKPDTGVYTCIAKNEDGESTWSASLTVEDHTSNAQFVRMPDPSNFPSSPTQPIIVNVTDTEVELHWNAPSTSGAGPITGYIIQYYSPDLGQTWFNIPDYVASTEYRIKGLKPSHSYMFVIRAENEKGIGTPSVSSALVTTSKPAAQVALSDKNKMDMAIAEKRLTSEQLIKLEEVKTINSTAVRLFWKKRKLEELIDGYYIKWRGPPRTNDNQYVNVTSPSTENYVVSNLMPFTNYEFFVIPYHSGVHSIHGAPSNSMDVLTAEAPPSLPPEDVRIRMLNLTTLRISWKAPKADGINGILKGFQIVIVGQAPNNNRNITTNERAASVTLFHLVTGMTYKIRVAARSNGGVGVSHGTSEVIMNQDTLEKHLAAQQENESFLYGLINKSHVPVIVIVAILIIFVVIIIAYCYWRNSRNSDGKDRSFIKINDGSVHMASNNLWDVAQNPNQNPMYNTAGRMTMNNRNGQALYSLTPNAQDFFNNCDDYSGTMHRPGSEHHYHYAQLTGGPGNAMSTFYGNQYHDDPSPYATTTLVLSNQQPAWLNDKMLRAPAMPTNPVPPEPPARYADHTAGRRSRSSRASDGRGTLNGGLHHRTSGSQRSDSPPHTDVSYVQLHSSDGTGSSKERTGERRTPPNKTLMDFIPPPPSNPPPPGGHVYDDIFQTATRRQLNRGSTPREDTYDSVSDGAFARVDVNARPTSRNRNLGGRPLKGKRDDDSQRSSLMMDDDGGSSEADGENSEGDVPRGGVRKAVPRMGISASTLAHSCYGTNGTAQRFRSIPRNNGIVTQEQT
# B1: CWN-2–GST (ligand, C. elegans, UniProt P34889 38-360, looked up)
# chain: AGHNVKPVCELPGLSPGQAQVCELFKDHMPAVSIGAQNAIQECQRQFTGHRWNCSTHYSTGMLGPIHKMATREAAFTYAILSAGVTHEIGRRCKQGLLTSCGCSDETKPKNVPTDWSWGGCGDNVEYGYKFSRDFIDIREKEHDPKRNHDNGRSLMNRRNNEAGRKILKRHRKPKCKCHGVSGACNMKTCWMQLPSMEQVGKILRNKYDKAIRVQINDRGNLQLLADEATKERKTRALPTDLVFMDDSPDYCRFDRHSGTLGTEGRVCKRGSGGAEGCDSLCCGRGYNTYTQEVKSKCNCKFEWCCKVVCQTCNNVTQVDICK
# Biological target: T1, SAX-3–Flag
# Assay: pull-down
binder,measurement,value
B1,binding result,binds
